These results are taken from PMC11515973, “8-Oxoguanine DNA Glycosylase1 conceals oxidized guanine in nucleoprotein-associated RNA of respiratory syncytial virus”.

The target of this series is OGG1 (ENZ-253, ProSpec) (UniProt O15527 1-345). The series is described as follows: EMSA. To be noted: protein: commercial, label: Cy5. A general note: A gel shift assay detects complexes by their altered migration in electrophoresis.
Chain of OGG1 (ENZ-253, ProSpec) (O15527 whole entry): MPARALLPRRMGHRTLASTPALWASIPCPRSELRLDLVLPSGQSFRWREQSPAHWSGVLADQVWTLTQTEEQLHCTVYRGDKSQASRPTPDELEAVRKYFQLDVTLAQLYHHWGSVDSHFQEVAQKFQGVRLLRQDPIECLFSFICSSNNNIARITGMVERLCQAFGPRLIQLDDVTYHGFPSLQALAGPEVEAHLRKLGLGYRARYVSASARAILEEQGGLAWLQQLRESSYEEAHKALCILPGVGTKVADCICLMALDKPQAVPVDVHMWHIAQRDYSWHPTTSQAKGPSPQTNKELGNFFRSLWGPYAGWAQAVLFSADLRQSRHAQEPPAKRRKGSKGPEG

With GGGGCAAAUGCAAACAUGUCCAAAAACAAGGACCAACGCA (structured_RNA, single 8-oxoguanine at the end of GGGG) [8oxo-rG, undenatured], the binding result (predicted secondary structure) is “binds”.

B1: 8oxo-rG:rC (dsRNA)
RNA 1: GGGGCAAAUGCAAACAUGUCCAAAAACAAGGACCAACGCA
RNA 2: UGCGUUGGUCCUUGUUUUUGGACAUGUUUGCAUUUGCCCC
modifications: single 8-oxoguanine at the end of GGGG
Take B1: for the setting “annealed duplex”, the binding result is on record as “binds”.
